Experimental findings from paper doi:10.1101/2025.05.20.655083 are described below.

The target in this test is BSB PyV-LTA;mNLSn peptide (Black Sea Bass polyomavirus). The test can be described thus: fluorescence polarisation.

The substance “mouse importin α2 ΔIBB (from UniProt P52293 70-529) (domain or fragment)” showed a fold decrease of binding affinity against BSB PyV-LTA;NLS of 10 times.
